Test results published in paper PMC11567897.

These sequences were tested against T1, Bruno-EGFP (BrunoFL-EGFP) (UniProt O02374) (assay: EMSA). Details: EMSA: 50 nM RNA, 20 mM Tris-HCl pH 7.5, 150 mM NaCl, 2 mM MgCl2, 5% glycerol, 0.5 mM TCEP, 20 min at room temperature; 0.8% agarose 0.5x TBE gel at 4 C.
T1 sequence: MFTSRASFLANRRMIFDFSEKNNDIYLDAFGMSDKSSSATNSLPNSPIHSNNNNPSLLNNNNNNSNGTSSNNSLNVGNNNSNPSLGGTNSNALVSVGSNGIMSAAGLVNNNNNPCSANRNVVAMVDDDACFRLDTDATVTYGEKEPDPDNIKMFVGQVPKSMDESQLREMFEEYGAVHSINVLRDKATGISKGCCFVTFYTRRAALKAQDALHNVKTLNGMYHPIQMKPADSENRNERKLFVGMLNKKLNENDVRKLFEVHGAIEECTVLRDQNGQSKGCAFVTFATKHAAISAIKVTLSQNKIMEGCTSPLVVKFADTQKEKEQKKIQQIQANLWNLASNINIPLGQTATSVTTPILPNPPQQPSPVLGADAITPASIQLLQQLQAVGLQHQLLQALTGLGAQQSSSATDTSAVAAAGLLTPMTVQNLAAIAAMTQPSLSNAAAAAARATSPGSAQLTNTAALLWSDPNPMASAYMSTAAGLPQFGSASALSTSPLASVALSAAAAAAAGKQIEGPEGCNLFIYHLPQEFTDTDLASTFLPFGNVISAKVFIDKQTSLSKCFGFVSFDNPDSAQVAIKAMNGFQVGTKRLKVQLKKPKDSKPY
With “GGGAGUGAAGCAUUUGCGCGAUUUUCGUCUUUCUGUUUCCGUUUGCAAAAAAGUUUAUAAAAUGCUUACACUCUGCUGCAGACACGCCAACCGGAAGUGCGCACUAAGCGCUUGUUUGUAGCACAGUGUAGAAUUCUGGCGUAAUUUACAGCUCUACUUUAAAGUCUUCUAGAUAGCUAUCUACUAUUUAUAAACUUAUUUAUUGUCUUGAAUGUAUGUUAAUUGUAUGUAUUGAUGGUGAUCACGUUUUUUUUGUCCUAUAACAAGCUGCAAUGUAAAAUCCAAAAAAAAAAUG [oskar292]” the binding was “binds”. In the case of “GGGUGGAAAAUUCGCUUGCACAAAAUCAACGCCGCGGCUGAUUUAUUAUUGAUGUGCUCAAGCAAAUUCA [WTOES (WT67)]”, the binding is reported as “no binding”. For “GGGUGGAAAAUUCGCUUGCACAAAAUCAACGUUGCGGCUGAUUUAUUAUUGAUGUGCUCAAGCAAAUUCA [UUOES (UU67)]”, the binding was “no binding”.
